Several values for one entry are separate records, joined by “and”; a condition that tells them apart may be missing. Identical values can stand only once.
What was measured:
[1] = biological target: bacteriophage λN peptide fused to the N-terminus of β-EGFP (bacteriophage λ; Aequorea victoria) [GFP: P42212]; assay: cell-based or functional assay
[2] = biological target: β-fragment of EGFP (betaCys-fragment, 159-234 aa) biotinylated, tagged with streptavidin and a biotinylated 21-nt oligonucleotide (Aequorea victoria) [GFP: P42212]; assay: cell-based or functional assay

Substance | average fluorescence over background (no RNA component), 0.01 mM IPTG [1] | signal/background ratio at reduced IPTG [1] | t½ of fluorescence increase upon mixing [2] [min]
α-EGFP fused at its C-terminus to HTLV-1 Rex peptide (from UniProt P42212 1-158) | 10 fold and 15 fold | 10 fold and 20 fold | 
α-fragment of EGFP (alphaCys-fragment, 1-158) biotinylated, tagged with streptavidin and a biotinylated 21-nt oligonucleotide (from UniProt P42212 1-158; P22629 37-163) |  |  | 1.67
